Results from publication PMC4963855.

Biological target: mouse recombinant TNF (mouse) (UniProt P06804)
UniProt P06804, sequence (P06804 80-235): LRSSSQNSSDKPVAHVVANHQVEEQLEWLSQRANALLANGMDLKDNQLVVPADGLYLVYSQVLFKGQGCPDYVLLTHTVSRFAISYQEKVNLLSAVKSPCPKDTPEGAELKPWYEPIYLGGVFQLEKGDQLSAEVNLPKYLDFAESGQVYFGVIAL

BmooMP-alpha-I, zinc metalloprotease of class P-I from Bothrops moojeni snake venom (enzyme)
TNF level detected by sandwich ELISA after preincubation of recombinant TNF (1000 pg/mL) with 12 ug/mL BmooMP-alpha-I for 45 min at 37 °C (degradation of TNF): 53.4 % decrease
TNF level detected by sandwich ELISA after preincubation of recombinant TNF with BmooMP-alpha-I inactivated with 10 mM Na2EDTA (BmooMP-alpha-I(i)): 80%
